{"source": "paper PMC9504884", "about": "“Functional Interactions of Kluyveromyces lactis Telomerase Reverse Transcriptase with the Three-Way Junction and the Template Domains of Telomerase RNA”", "binders": {"B1": {"name": "T + TBE (structured_RNA)", "RNA": "GGUAAGGACCAGUGCCACGAAAGUGGUACUUCAAAUCCGUACACCACAUACCUAAUCAAAACCG"}}, "assay_in_all_cases": "EMSA; 1 nM RNA, tRNA competitor; 25 mM Tris-HCl pH 7.5, 50 mM KCl, 1 mM MgCl2, 1 mM DTT, 10% glycerol, 0.1% Triton, 0.5 mg/mL BSA, 1.7 ng/uL yeast tRNA, 1 nM RNA probe; 15 min on ice then 10 min room temperature; gel at 6 C", "key": {"[1]": {"molecular_target": "T1, klTRBD klEst2 171-422 (Kluyveromyces lactis, UniProt Q6CSS0 171-422)", "T1 sequence": "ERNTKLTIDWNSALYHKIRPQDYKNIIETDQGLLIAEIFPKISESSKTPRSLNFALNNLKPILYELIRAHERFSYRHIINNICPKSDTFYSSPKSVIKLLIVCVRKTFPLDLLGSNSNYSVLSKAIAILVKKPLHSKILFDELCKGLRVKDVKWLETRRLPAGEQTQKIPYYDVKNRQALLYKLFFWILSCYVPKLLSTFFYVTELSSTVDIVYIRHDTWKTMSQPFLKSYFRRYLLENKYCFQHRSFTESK", "settings": "protein: recombinant; tags: N-terminal His-SUMO, TEV-cleaved; label: 5'-32P when probe; hairpin (TBE) with template"}, "[2]": {"molecular_target": "T2, klEst2 full-length (TERT) (Kluyveromyces lactis, UniProt Q6CSS0 1-861)", "T2 sequence": "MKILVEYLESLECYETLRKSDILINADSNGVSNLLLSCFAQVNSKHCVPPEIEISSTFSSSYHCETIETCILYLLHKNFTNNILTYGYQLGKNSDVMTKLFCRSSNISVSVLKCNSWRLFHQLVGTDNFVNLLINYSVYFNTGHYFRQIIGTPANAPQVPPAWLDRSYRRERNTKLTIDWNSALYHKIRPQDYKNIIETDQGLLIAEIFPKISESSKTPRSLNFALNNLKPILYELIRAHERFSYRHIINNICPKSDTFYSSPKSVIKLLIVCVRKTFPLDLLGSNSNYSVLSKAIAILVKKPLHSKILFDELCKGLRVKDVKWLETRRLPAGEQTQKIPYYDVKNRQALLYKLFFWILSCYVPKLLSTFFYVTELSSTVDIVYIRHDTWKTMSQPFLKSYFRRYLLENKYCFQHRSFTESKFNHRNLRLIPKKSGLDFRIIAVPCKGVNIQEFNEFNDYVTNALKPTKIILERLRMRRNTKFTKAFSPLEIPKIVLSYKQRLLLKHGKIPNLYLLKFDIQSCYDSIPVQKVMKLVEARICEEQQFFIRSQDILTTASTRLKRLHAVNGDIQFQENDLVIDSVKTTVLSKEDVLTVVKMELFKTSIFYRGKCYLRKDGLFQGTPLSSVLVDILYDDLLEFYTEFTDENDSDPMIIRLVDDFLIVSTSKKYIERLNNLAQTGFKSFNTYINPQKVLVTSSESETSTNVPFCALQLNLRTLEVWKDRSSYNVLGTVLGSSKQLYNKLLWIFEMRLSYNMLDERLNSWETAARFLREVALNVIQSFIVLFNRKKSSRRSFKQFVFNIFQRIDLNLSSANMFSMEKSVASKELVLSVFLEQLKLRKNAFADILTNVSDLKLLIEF", "settings": "protein: recombinant; tags: expressed in E. coli; His-SUMO tag described for the TRBD constructs, tag of full-length not clearly stated; label: 5'-32P when probe; hairpin (TBE) with template"}, "[3]": {"molecular_target": "T3, klTRBD klEst2 171-404 (Kluyveromyces lactis, UniProt Q6CSS0 171-404)", "T3 sequence": "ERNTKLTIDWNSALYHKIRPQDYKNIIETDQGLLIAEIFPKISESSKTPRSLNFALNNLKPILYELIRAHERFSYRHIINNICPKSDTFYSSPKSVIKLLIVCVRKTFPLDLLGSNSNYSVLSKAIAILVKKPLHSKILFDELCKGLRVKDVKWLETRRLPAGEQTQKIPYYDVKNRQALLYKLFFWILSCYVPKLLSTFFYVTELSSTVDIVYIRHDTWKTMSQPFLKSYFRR", "settings": "protein: recombinant; tags: N-terminal His-SUMO, TEV-cleaved; label: 5'-32P when probe; hairpin (TBE) with template"}}, "data": [{"binder": "B1", "values": [{"measurement": "binding result", "setting": "[1]", "result": "no binding"}, {"measurement": "binding result", "setting": "[2]", "result": "binds"}, {"measurement": "binding result", "setting": "[3]", "result": "no binding"}]}]}
